From the Immune Epitope Database (IEDB)

What was measured:
HLA-B*40:01 = experiment: IEDB peptide-MHC binding, purified MHC/direct/fluorescence; filed as Kd, often an IC50 or EC50 that approximates it; ≥ and ≤ were set here for values at or beyond the usual limits of such assays; conditions: source organism: Yersinia pestis
HLA-A*02:12 [1] = experiment: as above; conditions: source organism: Yersinia pestis CA88-4125
HLA-A*02:03 [2] = experiment: as above; conditions: source organism: Yersinia pestis CA88-4125
HLA-A*31:01 [3] = experiment: as above; conditions: source organism: Yersinia pestis
HLA-A*02:01 [4] = experiment: as above; conditions: source organism: Yersinia pestis
HLA-B*08:02 = experiment: as above; conditions: source organism: Yersinia pestis CA88-4125
HLA-A*03:01 [5] = experiment: as above; conditions: source organism: Yersinia pestis
HLA-A*69:01 [6] = experiment: as above; conditions: source organism: Yersinia pestis
HLA-A*02:06 = experiment: as above; conditions: source organism: Yersinia pestis CA88-4125
HLA-B*08:01 = experiment: as above; conditions: source organism: Yersinia pestis CA88-4125
HLA-B*15:01 [7] = experiment: as above; conditions: source organism: Yersinia pestis
HLA-B*27:05 = experiment: as above; conditions: source organism: Yersinia pestis
HLA-B*07:02 = experiment: as above; conditions: source organism: Yersinia pestis
HLA-B*58:01 = experiment: as above; conditions: source organism: Yersinia pestis
HLA-A*11:01 = experiment: as above; conditions: source organism: Yersinia pestis
HLA-A*02:11 [8] = experiment: as above; conditions: source organism: Yersinia pestis CA88-4125
HLA-B*44:02 = experiment: as above; conditions: source organism: Yersinia pestis
HLA-A*02:19 [9] = experiment: as above; conditions: source organism: Yersinia pestis CA88-4125
HLA-A*01:01 = experiment: as above; conditions: source organism: Yersinia pestis
HLA-A*02:16 [10] = experiment: as above; conditions: source organism: Yersinia pestis CA88-4125
HLA-A*02:50 = experiment: IEDB peptide-MHC binding, purified MHC/competitive/fluorescence; filed as Kd, often an IC50 or EC50 that approximates it; ≥ and ≤ were set here for values at or beyond the usual limits of such assays; conditions: source organism: Yersinia pestis Nepal516
HLA-B*39:01 = experiment: as above; conditions: source organism: Entamoeba histolytica HM-1:IMSS
HLA-A*80:01 = experiment: as above; conditions: source organism: Entamoeba histolytica HM-1:IMSS
HLA-A*02:12 [11] = experiment: as above; conditions: source organism: Entamoeba histolytica HM-1:IMSS
HLA-A*02:03 [12] = experiment: as above; conditions: source organism: Entamoeba histolytica HM-1:IMSS
HLA-A*26:01 = experiment: as above; conditions: source organism: Entamoeba histolytica HM-1:IMSS
HLA-A*02:01 [13] = experiment: as above; conditions: source organism: Entamoeba histolytica HM-1:IMSS
HLA-A*03:01 [14] = experiment: as above; conditions: source organism: Entamoeba histolytica HM-1:IMSS
HLA-A*25:01 = experiment: as above; conditions: source organism: Entamoeba histolytica HM-1:IMSS
HLA-A*69:01 [15] = experiment: as above; conditions: source organism: Entamoeba histolytica HM-1:IMSS
HLA-B*18:01 = experiment: as above; conditions: source organism: Entamoeba histolytica HM-1:IMSS
HLA-B*57:01 = experiment: as above; conditions: source organism: Entamoeba histolytica HM-1:IMSS
HLA-B*15:01 [16] = experiment: as above; conditions: source organism: Entamoeba histolytica HM-1:IMSS
HLA-B*27:03 = experiment: as above; conditions: source organism: Entamoeba histolytica HM-1:IMSS
HLA-A*23:01 = experiment: as above; conditions: source organism: Entamoeba histolytica HM-1:IMSS
HLA-B*51:01 = experiment: as above; conditions: source organism: Entamoeba histolytica HM-1:IMSS
HLA-A*02:11 [17] = experiment: as above; conditions: source organism: Entamoeba histolytica HM-1:IMSS
HLA-A*24:03 = experiment: as above; conditions: source organism: Entamoeba histolytica HM-1:IMSS
HLA-B*15:17 = experiment: as above; conditions: source organism: Entamoeba histolytica HM-1:IMSS
HLA-A*02:19 [18] = experiment: as above; conditions: source organism: Entamoeba histolytica HM-1:IMSS
HLA-A*29:02 = experiment: as above; conditions: source organism: Entamoeba histolytica HM-1:IMSS
HLA-B*46:01 = experiment: as above; conditions: source organism: Entamoeba histolytica HM-1:IMSS
HLA-A*68:02 = experiment: as above; conditions: source organism: Entamoeba histolytica HM-1:IMSS
HLA-A*02:16 [19] = experiment: as above; conditions: source organism: Entamoeba histolytica HM-1:IMSS
HLA-A*31:01 [20] = experiment: IEDB peptide-MHC binding, purified MHC/competitive/fluorescence; ≥ and ≤ were set here for values at or beyond the usual limits of such assays; conditions: source organism: Homo sapiens

Sequence FLPPQIPVI has a Kd (HLA-B*40:01) of at least 20 µM, a Kd (HLA-A*02:12 [1]) of at most 0.001 µM and a Kd (HLA-A*02:03 [2]) of at most 0.001 µM. The Kd (HLA-A*31:01 [3]) was at least 20 µM, the Kd (HLA-A*02:01 [4]) was 0.0214 µM and the Kd (HLA-B*08:02) was at least 20 µM. For the same sequence, the Kd (HLA-A*03:01 [5]) was at least 20 µM, the Kd (HLA-A*69:01 [6]) was 4.7 µM and the Kd (HLA-A*02:06) was at most 0.001 µM. It also gave a Kd (HLA-B*08:01) of at least 20 µM, a Kd (HLA-B*15:01 [7]) of 0.477 µM and a Kd (HLA-B*27:05) of at least 20 µM. It also gave a Kd (HLA-B*07:02) of at least 20 µM, a Kd (HLA-B*58:01) of at least 20 µM and a Kd (HLA-A*11:01) of at least 20 µM. It also gave a Kd (HLA-A*02:11 [8]) of at most 0.001 µM, a Kd (HLA-B*44:02) of at least 20 µM and a Kd (HLA-A*02:19 [9]) of 0.018 µM. It also gave a Kd (HLA-A*01:01) of at least 20 µM, a Kd (HLA-A*02:16 [10]) of at most 0.001 µM and a Kd (HLA-A*02:50) of at most 0.0001 µM.
In the case of LICYQIEYI, the Kd (HLA-B*39:01) is reported as at least 20 µM, the Kd (HLA-A*80:01) is reported as at least 20 µM and the Kd (HLA-A*02:12 [11]) is reported as at least 20 µM. It also gave a Kd (HLA-A*02:03 [12]) of at least 20 µM, a Kd (HLA-A*26:01) of at least 20 µM and a Kd (HLA-A*02:01 [13]) of at least 20 µM. It also gave a Kd (HLA-A*03:01 [14]) of at least 20 µM, a Kd (HLA-A*25:01) of at least 20 µM and a Kd (HLA-A*69:01 [15]) of at least 20 µM. The Kd (HLA-B*18:01) was at least 20 µM, the Kd (HLA-B*57:01) was at least 20 µM and the Kd (HLA-B*15:01 [16]) was at least 20 µM. The Kd (HLA-B*27:03) was at least 20 µM, the Kd (HLA-A*23:01) was at least 20 µM and the Kd (HLA-B*51:01) was at least 20 µM. For the same sequence, the Kd (HLA-A*02:11 [17]) was 0.0008 µM, the Kd (HLA-A*24:03) was at least 20 µM and the Kd (HLA-B*15:17) was at least 20 µM. The Kd (HLA-A*02:19 [18]) was at least 20 µM, the Kd (HLA-A*29:02) was at least 20 µM and the Kd (HLA-B*46:01) was at least 20 µM. For the same sequence, the Kd (HLA-A*68:02) was at least 20 µM and the Kd (HLA-A*02:16 [19]) was at least 20 µM.
TMGTGTFGR showed an IC50 (HLA-A*31:01 [20]) of 0.388 µM.
